Substitutions are numbered along the chain they refer to. Numbers in names are those of the source.
Legend:
sperm-zona binding = test: Sperm-egg (zona pellucida) binding assay; assay type: cell-based, mouse
Procedure: All gametes were placed and handled within TYH medium. […] were isolated from wild-type mice and ACE knockout mice, and dispersed in 250 μl of medium. After sperms were floated for 15 minutes, transferred to 1.5 ml medium and incubated for at least 1 hour. Eggs were separated from superovulated mice and treated with 1 mg/ml of hyaluronidase (Sigma) on THY medium for removing laminated cells. Incubated sperms (approximately 2.0×10^6 sperm/ml) were treated for 90 min with 0.2 U wild-type ACE (ACE-WT), 0.2 U ACE-E414D, 1.0 IU/ml PI-PLC, or […] PI-PLC with 4 mM inositol monophosphate (Sigma), 4 mM inositol monophosphate, and buffer (PBS) alone. For the sperm-egg (zona pellucida) binding assay, gametes were co-incubated in a TYH droplet covered with mineral oil for 1 h, washed gently in PBS and fixed with 4% paraformaldehyde/PBS. The oocytes were visualized at 200× under a light microscope (Olympus) and the number of sperms was counted at a focus showing the widest diameter of eggs.
In addition, the effect of ACE on sperm-egg binding was examined. That is, Epididymal sperms of both wild-type and knockout mice were treated with either wild-type or peptidase-inactivated (E414D) ACEs or PI-PLC and then incubated with unfertilized eggs from C57BL/6 mice. These treatments had no effects on wild-type sperm-zona binding.

PLAP = PLAP conversion assay (GPI-anchored protein releasing activity); assay type: biochemical; conditions: immunoblotting of PLAP
Procedure: This assay uses a nature of nonionic detergent, TritonX-114, which distributes water-soluble molecules and hydrophobia molecules soluble to detergent. By the PLAP conversion assay, GPI-anchored protein releasing activity in a course of purification was monitored. PLAP was prepared by expressing cDNA in COS7 cells, extracted by buffer containing 20 mM Tris, pH 8.0, 150 mM NaCl, 1% TritonX-114, Complete™ protease-inhibitor and the detergent-soluble phase was collected after partitioning at 37° C. PLAP was purified by DEAE-cellulose ionic exchange liquid chromatography (LC) (elution buffer: […] tris pH8.0, 0.1% TritonX-100, 0 mM-500 mM NaCl gradient) and anti-PLAP antibody column (antibody: rabbit anti-PLAP polyclonal antibody, Biomeda; Column: Hitrap NHS-Activated HP, Amercham Bioscience; elution buffer: 100 mM glycine pH2.8). Using detergent-soluble PLAP protein as substrate performed assay. PLAP activity was measured with an alkaline phosphatase detection kit (Nacalai tesque). The conversion reaction was performed in 100 mM Tris, pH 7.5, 5 mM CaCl2, 150 mM NaCl and 0.3 IU/ml of PLAP for 90 min at 37° C. The reaction was stopped by adding TritonX-114 at a final concentration of 2% and 1 mM EDTA, followed by microcentrifugation at 25° C. The water-soluble phase was collected and PLAP activity was measured by the alkaline phosphatase detection kit. […]

[1] = Peptidase activity of ACE; assay type: biochemical; conditions: relative to wild-type ACE
Procedure: FIG. 7 is a measurement of peptidase activity (Pase). The E414D is a mutant that Glu414 in the peptidase active site was substituted to Asp. WT, wild-type ACE-T. Procedures were accorded with the description of Kasahara and Ashihara, Clin Chem. 27:1922-1925.
The obtained PCR product encodes a FLAG-tagged version of the soluble testicular isoform. The cDNA for peptidase-inactivated mutant with amino acid Glu414 replaced by Asp was prepared by the site-directed mutagenesis with the mutation promer: 5′-cttggtgatag cgcaccacga tatgggccac atccagtatt tcatgca-3′ (SEQ ID NO: 3). The culture supernatants of COS7 cells transfected with the ACE cDNAs were collected and recombinant ACEs were purified by anti-FLAG M2-agarose affinity column (Sigma). The somatic isoform of ACE (ACE-S) from rabbit lung (Sigma A-6778) was also used according to the manufacturer's protocol. The peptidase activity of the ACE was measured by the reported method (Kawahara and Ashihara, Clin. Chem. 27:1922-1925, 1981). 1.9. FACS Analysis

prion protein = conditions: HEK293 cells, 1.0 U/ml
EGFP-GPI [2] = test: FACS analysis of shedding, EGFP-GPI on F9 cells; assay type: cell-based; conditions: without filipin pre-treatment
EGFP-GPI [3] = test: Radiolabeling analysis of released EGFP-GPI from F9 cells; assay type: cell-based; conditions: filipin-pretreated F9 cells
Procedure: F9 cells expressing EGFP-GPI were metabolically labeled with 0.2 mCi/ml of [^32P]-orthophosphoric acid (Amersham Bioscience) or 0.1 mCi/ml of [^3H]-ethanolamine (Amersham Bioscience) for 16 h. Filipin-pretreated cells were incubated with 0.5 μM of ACE, 1.0 IU/ml of PI-PLC or 10% lysate of mouse submaxillary gland containing mouse glandular kallikrein (mGK; enzyme digesting EGFP at near C-terminus) for 1 h at 37° C. Released EGFP was immunoprecipitated with anti-GFP antibody, subjected to SDS-PAGE and transferred onto nitrocellulose membrane. The quantity of EGFP-GPI protein was evaluated by measuring the density of bands detected on EGFP immunoblotting by using a densitometer (Molecular Device) and radioactivity of the cognate band was determined by a liquid scintillation counter.
Therefore, the F9 cells expressing EGFP-GPI were metabolically labeled with [^32P]-phosphate or [^3H]-ethanolamine, and treated with ACE, PI-PLC or mGK. Then, the released proteins from the cells were applied to EGFP immunoblotting, to measure radioactivity for each band (FIG. 15). Measurements were performed at least four times, and the almost same results were obtained. Although the released EGFP-GPI products with ^32P or ^3H labeling were not detected by mGK treatments, both were detected by ACE treatment or PI-PLC treatment, indicating the presence of a portion of GPI-anchor structure in the ACE-released molecules.

E-cadherin = test: FACS analysis of shedding, E-cadherin on F9 cells; assay type: cell-based, mouse
CD59 = test: FACS analysis of shedding, CD59 on HeLa cells; assay type: cell-based, human; conditions: filipin pre-treated HeLa cells
DAF = conditions: erythrocyte having prominent acylation; cited from earlier work

O=P(O)(O)O[C@@H]1[C@@H](O)[C@H](O)[C@@H](O)[C@H](O)[C@@H]1O [inositol monophosphate, reference compound]
inhibition of the PI-PLC effect on egg binding of ACE knockout sperm (sperm-zona binding; 4 mM with PI-PLC): inhibition

B1: ACE (E414D): peptidase-inactivated mutant ACE with amino acid Glu414 replaced by Asp (protein, listed as Mus musculus)
chain: MGQGWATPGLPSFLFLLLCCGHHLLVLSQVATDHVTANQGITNQATTRSQTTTHQATIDQTTQIPNLETDEAKADRFVEEYDRTAQVLLNEYAEANWQYNTNITIEGSKILLEKSTEVSNHTLKYGTRAKTFDVSNFQNSSIKRIIKKLQNLDRAVLPPKELEEYNQILLDMETTYSLSNICYTNGTCMPLEPDLTNMMATSRKYEELLWAWKSWRDKVGRAILPFFPKYVEFSNKIAKLNGYTDAGDSWRSLYESDNLEQDLEKLYQELQPLYLNLHAYVRRSLHRHYGSEYINLDGPIPAHLLGNMWAQTWSNIYDLVAPFPSAPNIDATEAMIKQGWTPRRIFKEADNFFTSLGLLPVPPEFWNKSMLEKPTDGREVVCHPSAWDFYNGKDFRIKQCTSVNMEDLVIAHHDMGHIQYFMQYKDLPVTFREGANPGFHEAIGDIMALSVSTPKHLYSLNLLSTEGSGYEYDINFLMKMALDKIAFIPFSYLIDQWRWRVFDGSITKENYNQEWWSLRLKYQGLCPPVPRSQGDFDPGSKFHVPANVPYVRYFVSFIIQFQFHEALCRAAGHTGPLHKCDIYQSKEAGKLLADAMKLGYSKPWPEAMKLITGQPNMSASAMMNYFKPLTEWLVTENRRHGETLGWPEYNWAPNTARAEGSTAESNRVNFLGLYLEPQQARVGQWVLLFLGVALLVATVGLAHRLYNIRNHHSLRRPHRGPQFGSEVELRHSLAHRLYNIRNHHSLRRPHRGPQFGSEVELRHS
GPI-anchored protein releasing activity compared with wild-type ACE (PLAP): not changed | sperm-zona binding of ACE knockout sperm (sperm-zona binding; epididymal sperm of ACE knockout mice, eggs from C57BL/6 mice): vigorously restored | peptidase activity compared with wild-type ACE [1]: less than 1/1000

B2: ACE: angiotensin-converting enzyme, isoform not named at the place (ACE-S in the FACS tests of b107/b108) (protein, listed as Mus musculus)
chain: B1 chain with D414E
shedding of prion protein from cell surface (prion protein): efficiently shed | effect on EGFP-GPI expression (EGFP-GPI [2]): little effect | radioactivity of released products compared with PI-PLC-released molecules, labeled on the ethanolamine (EGFP-GPI [3]; 3H ethanolamine label): a half | radioactivity of released products compared with PI-PLC-released molecules, labeled on the phosphate (EGFP-GPI [3]; 32P phosphate label): about one-third | released EGFP-GPI products with 32P or 3H labeling (EGFP-GPI [3]): detected | effect on the transmembrane protein E-cadherin (E-cadherin): no effect | dose dependence of CD59 shedding (CD59): dose-dependent

B3: GPI-PLD: only mammalian enzyme known so far showing GPI-anchor-cleaving activity (protein, UniProt P80108 24-840, looked up)
Phosphatidylinositol-glycan-sp …: CGLSTHVEIGHRALEFLQLHNGRVNYRELLLEHQDAYQAGIVFPDCFYPSICKGGKFHDVSESTHWTPFLNASVHYIRENYPLPWEKDTEKLVAFLFGITSHMAADVSWHSLGLEQGFLRTMGAIDFHGSYSEAHSAGDFGGDVLSQFEFNFNYLARRWYVPVKDLLGIYEKLYGRKVITENVIVDCSHIQFLEMYGEMLAVSKLYPTYSTKSPFLVEQFQEYFLGGLDDMAFWSTNIYHLTSFMLENGTSDCNLPENPLFIACGGQQNHTQGSKMQKNDFHRNLTTSLTESVDRNINYTERGVFFSVNSWTPDSMSFIYKALERNIRTMFIGGSQLSQKHVSSPLASYFLSFPYARLGWAMTSADLNQDGHGDLVVGAPGYSRPGHIHIGRVYLIYGNDLGLPPVDLDLDKEAHRILEGFQPSGRFGSALAVLDFNVDGVPDLAVGAPSVGSEQLTYKGAVYVYFGSKQGGMSSSPNITISCQDIYCNLGWTLLAADVNGDSEPDLVIGSPFAPGGGKQKGIVAAFYSGPSLSDKEKLNVEAANWTVRGEEDFSWFGYSLHGVTVDNRTLLLVGSPTWKNASRLGHLLHIRDEKKSLGRVYGYFPPNGQSWFTISGDKAMGKLGTSLSSGHVLMNGTLKQVLLVGAPTYDDVSKVAFLTVTLHQGGATRMYALTSDAQPLLLSTFSGDRRFSRFGGVLHLSDLDDDGLDEIIMAAPLRIADVTSGLIGGEDGRVYVYNGKETTLGDMTGKCKSWITPCPEEKAQYVLISPEASSRFGSSLITVRSKAKNQVVIAAGRSSLGARLSGALHVYSLGSD
release of DAF from the intact erythrocyte (DAF): could not release

Reference: US7407933B2, “Drug containing angiotensin convertase” (priority 2002, dated 2008)
